The chains are these.
B1: cTPI (cytosolic triosephosphate isomerase) (Arabidopsis thaliana) (protein)
chain: MARKFFVGGNWKCNGTAEEVKKIVNTLNEAQVPSQDVVEVVVSPPYVFLPLVKSTLRSDFFVAAQNCWVKKGGAFTGEVSAEMLVNLDIPWVILGHSERRAILNESSEFVGDKVAYALAQGLKVIACVGETLEEREAGSTMDVVAAQTKAIADRVTNWSNVVIAYEPVWAIGTGKVASPAQAQEVHDELRKWLAKNVSADVAATTRIIYGGSVNGGNCKELGGQADVDGFLVGGASLKPEFIDIIKAAEVKKSA
notes: tag removal not mentioned
B2: cTPI (cytosolic triosephosphate isomerase) (Arabidopsis thaliana; C218S) (protein)
chain: B1 chain with C218S
notes: tag removal not mentioned
B3: cTPI (cytosolic triosephosphate isomerase) (Arabidopsis thaliana; C127S/C218S) (protein)
chain: B1 chain with C127S, C218S
notes: tag removal not mentioned
B4: cTPI (cytosolic triosephosphate isomerase) (Arabidopsis thaliana; C127S) (protein)
chain: B1 chain with C127S
notes: tag removal not mentioned

This passage reports Km, kcat and kcat/Km results from PMC5177656, “Cytosolic Triosephosphate Isomerase from Arabidopsis thaliana Is Reversibly Modified by Glutathione on Cysteines 127 and 218” (Frontiers in Plant Science, 2016).

Positions count from the first letter of the chain named. Names may count otherwise.

Substrate in the series: O=CC(O)COP(=O)(O)O
Put plainly: coupled assay with alpha-glycerophosphate dehydrogenase, NADH consumption. Conditions: pH 7.8, 30°C, 100 mM Tris-Cl, 5 mM DTT, GAP 0-4 mM (from DL-GAP). The series is classed as biochemical, Arabidopsis thaliana. The text has this:
coupled assay with alpha-glycerophosphate dehydrogenase, NADH consumption on cTPI (cytosolic triosephosphate isomerase)
Regarding B1, the Michaelis-Menten constant (Km) – broadly, the concentration of substrate that gives half-maximal velocity – turned out to be 1320 ± 60 µM; the kcat – broadly, the maximal rate divided by the concentration of active sites – is 3410 ± 269 s⁻¹; the kcat/Km (usually the turnover number divided by the Michaelis constant) was 2.58e+06 ± 321000 M⁻¹ s⁻¹.

Regarding B2, the Km stood at 1680 ± 30 µM, the kcat was found to be 2690 ± 73 s⁻¹ and the specificity constant (kcat/Km) is 1.6e+06 ± 72000 M⁻¹ s⁻¹.

As for B3, the Michaelis constant (Km) was 500 ± 60 µM, the kcat worked out at 14.8 ± 0.8 s⁻¹ and the kcat/Km was 29600 ± 5200 M⁻¹ s⁻¹.

On to B4, for which the Km worked out at 480 ± 40 µM, the kcat stood at 70.4 ± 7.4 s⁻¹ and the catalytic efficiency (kcat/Km) came to 147000 ± 28000 M⁻¹ s⁻¹.
